# Assay results from patent publication US20210388087A1 (Chugai, published 2021).
# Target: T1, Human CD137 ECD (human)
# T1 construct: entry includes C-terminal His-tag and biotin acceptor peptide; also called human CD137 extracellular domain; 4-1BB
# Test: Biacore SPR, vs parent H183/L072
# T1 sequence (chain, as listed by the source limits assumed): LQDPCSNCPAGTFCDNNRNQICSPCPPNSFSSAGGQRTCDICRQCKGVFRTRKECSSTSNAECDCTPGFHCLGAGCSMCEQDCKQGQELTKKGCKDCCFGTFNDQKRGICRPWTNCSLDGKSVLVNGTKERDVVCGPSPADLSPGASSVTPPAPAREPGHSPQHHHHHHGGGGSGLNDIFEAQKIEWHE
row,fold change of affinity,Binder
1,1.1 fold,"H183/L072 VL E27aD (antibody, name in Kabat numbering, V domains shown, Dual-Ig) VH: QVQLVESGGGLVQPGRSLRLSCAASGFTFSNAWMHWVRQAPGKGLEWVAQIKDKGNAYAAYYAPSVKGRFTISRDDSKNSIYLQMNSLKTEDTAVYYCHYVHYASASTVLPAFGVDAWGQGTTVTVSS VL: DIVMTQSPLSLPVTPGEPASISCQASQDLVHMNRNTYLHWYQQKPGQAPRLLIYKVSNRFPGVPDRFSGSGSGTDFTLKISRVEAEDVGVYYCAQGTSVPFTFGQGTKLEIK"
2,1.1 fold,"H183/L072 VL E27aF (antibody, name in Kabat numbering, V domains shown, Dual-Ig) VH: QVQLVESGGGLVQPGRSLRLSCAASGFTFSNAWMHWVRQAPGKGLEWVAQIKDKGNAYAAYYAPSVKGRFTISRDDSKNSIYLQMNSLKTEDTAVYYCHYVHYASASTVLPAFGVDAWGQGTTVTVSS VL: DIVMTQSPLSLPVTPGEPASISCQASQFLVHMNRNTYLHWYQQKPGQAPRLLIYKVSNRFPGVPDRFSGSGSGTDFTLKISRVEAEDVGVYYCAQGTSVPFTFGQGTKLEIK"
3,1 fold,"H183/L072 VL E27aG (antibody, name in Kabat numbering, V domains shown, Dual-Ig) VH: QVQLVESGGGLVQPGRSLRLSCAASGFTFSNAWMHWVRQAPGKGLEWVAQIKDKGNAYAAYYAPSVKGRFTISRDDSKNSIYLQMNSLKTEDTAVYYCHYVHYASASTVLPAFGVDAWGQGTTVTVSS VL: DIVMTQSPLSLPVTPGEPASISCQASQGLVHMNRNTYLHWYQQKPGQAPRLLIYKVSNRFPGVPDRFSGSGSGTDFTLKISRVEAEDVGVYYCAQGTSVPFTFGQGTKLEIK"
4,1.1 fold,"H183/L072 VL E27aH (antibody, name in Kabat numbering, V domains shown, Dual-Ig) VH: QVQLVESGGGLVQPGRSLRLSCAASGFTFSNAWMHWVRQAPGKGLEWVAQIKDKGNAYAAYYAPSVKGRFTISRDDSKNSIYLQMNSLKTEDTAVYYCHYVHYASASTVLPAFGVDAWGQGTTVTVSS VL: DIVMTQSPLSLPVTPGEPASISCQASQHLVHMNRNTYLHWYQQKPGQAPRLLIYKVSNRFPGVPDRFSGSGSGTDFTLKISRVEAEDVGVYYCAQGTSVPFTFGQGTKLEIK"
5,0.8 fold,"H183/L072 VL E27aI (antibody, name in Kabat numbering, V domains shown, Dual-Ig) VH: QVQLVESGGGLVQPGRSLRLSCAASGFTFSNAWMHWVRQAPGKGLEWVAQIKDKGNAYAAYYAPSVKGRFTISRDDSKNSIYLQMNSLKTEDTAVYYCHYVHYASASTVLPAFGVDAWGQGTTVTVSS VL: DIVMTQSPLSLPVTPGEPASISCQASQILVHMNRNTYLHWYQQKPGQAPRLLIYKVSNRFPGVPDRFSGSGSGTDFTLKISRVEAEDVGVYYCAQGTSVPFTFGQGTKLEIK"
6,0.9 fold,"H183/L072 VL E27aK (antibody, name in Kabat numbering, V domains shown, Dual-Ig) VH: QVQLVESGGGLVQPGRSLRLSCAASGFTFSNAWMHWVRQAPGKGLEWVAQIKDKGNAYAAYYAPSVKGRFTISRDDSKNSIYLQMNSLKTEDTAVYYCHYVHYASASTVLPAFGVDAWGQGTTVTVSS VL: DIVMTQSPLSLPVTPGEPASISCQASQKLVHMNRNTYLHWYQQKPGQAPRLLIYKVSNRFPGVPDRFSGSGSGTDFTLKISRVEAEDVGVYYCAQGTSVPFTFGQGTKLEIK"
7,0.9 fold,"H183/L072 VL E27aL (antibody, name in Kabat numbering, V domains shown, Dual-Ig) VH: QVQLVESGGGLVQPGRSLRLSCAASGFTFSNAWMHWVRQAPGKGLEWVAQIKDKGNAYAAYYAPSVKGRFTISRDDSKNSIYLQMNSLKTEDTAVYYCHYVHYASASTVLPAFGVDAWGQGTTVTVSS VL: DIVMTQSPLSLPVTPGEPASISCQASQLLVHMNRNTYLHWYQQKPGQAPRLLIYKVSNRFPGVPDRFSGSGSGTDFTLKISRVEAEDVGVYYCAQGTSVPFTFGQGTKLEIK"
8,0.9 fold,"H183/L072 VL E27aM (antibody, name in Kabat numbering, V domains shown, Dual-Ig) VH: QVQLVESGGGLVQPGRSLRLSCAASGFTFSNAWMHWVRQAPGKGLEWVAQIKDKGNAYAAYYAPSVKGRFTISRDDSKNSIYLQMNSLKTEDTAVYYCHYVHYASASTVLPAFGVDAWGQGTTVTVSS VL: DIVMTQSPLSLPVTPGEPASISCQASQMLVHMNRNTYLHWYQQKPGQAPRLLIYKVSNRFPGVPDRFSGSGSGTDFTLKISRVEAEDVGVYYCAQGTSVPFTFGQGTKLEIK"
9,0.9 fold,"H183/L072 VL E27aN (antibody, name in Kabat numbering, V domains shown, Dual-Ig) VH: QVQLVESGGGLVQPGRSLRLSCAASGFTFSNAWMHWVRQAPGKGLEWVAQIKDKGNAYAAYYAPSVKGRFTISRDDSKNSIYLQMNSLKTEDTAVYYCHYVHYASASTVLPAFGVDAWGQGTTVTVSS VL: DIVMTQSPLSLPVTPGEPASISCQASQNLVHMNRNTYLHWYQQKPGQAPRLLIYKVSNRFPGVPDRFSGSGSGTDFTLKISRVEAEDVGVYYCAQGTSVPFTFGQGTKLEIK"
10,0.8 fold,"H183/L072 VL E27aP (antibody, name in Kabat numbering, V domains shown, Dual-Ig) VH: QVQLVESGGGLVQPGRSLRLSCAASGFTFSNAWMHWVRQAPGKGLEWVAQIKDKGNAYAAYYAPSVKGRFTISRDDSKNSIYLQMNSLKTEDTAVYYCHYVHYASASTVLPAFGVDAWGQGTTVTVSS VL: DIVMTQSPLSLPVTPGEPASISCQASQPLVHMNRNTYLHWYQQKPGQAPRLLIYKVSNRFPGVPDRFSGSGSGTDFTLKISRVEAEDVGVYYCAQGTSVPFTFGQGTKLEIK"
11,1.1 fold,"H183/L072 VL E27aQ (antibody, name in Kabat numbering, V domains shown, Dual-Ig) VH: QVQLVESGGGLVQPGRSLRLSCAASGFTFSNAWMHWVRQAPGKGLEWVAQIKDKGNAYAAYYAPSVKGRFTISRDDSKNSIYLQMNSLKTEDTAVYYCHYVHYASASTVLPAFGVDAWGQGTTVTVSS VL: DIVMTQSPLSLPVTPGEPASISCQASQQLVHMNRNTYLHWYQQKPGQAPRLLIYKVSNRFPGVPDRFSGSGSGTDFTLKISRVEAEDVGVYYCAQGTSVPFTFGQGTKLEIK"
12,0.9 fold,"H183/L072 VL E27aR (antibody, name in Kabat numbering, V domains shown, Dual-Ig) VH: QVQLVESGGGLVQPGRSLRLSCAASGFTFSNAWMHWVRQAPGKGLEWVAQIKDKGNAYAAYYAPSVKGRFTISRDDSKNSIYLQMNSLKTEDTAVYYCHYVHYASASTVLPAFGVDAWGQGTTVTVSS VL: DIVMTQSPLSLPVTPGEPASISCQASQRLVHMNRNTYLHWYQQKPGQAPRLLIYKVSNRFPGVPDRFSGSGSGTDFTLKISRVEAEDVGVYYCAQGTSVPFTFGQGTKLEIK"
13,0.6 fold,"H183/L072 VL E27aS (antibody, name in Kabat numbering, V domains shown, Dual-Ig) VH: QVQLVESGGGLVQPGRSLRLSCAASGFTFSNAWMHWVRQAPGKGLEWVAQIKDKGNAYAAYYAPSVKGRFTISRDDSKNSIYLQMNSLKTEDTAVYYCHYVHYASASTVLPAFGVDAWGQGTTVTVSS VL: DIVMTQSPLSLPVTPGEPASISCQASQSLVHMNRNTYLHWYQQKPGQAPRLLIYKVSNRFPGVPDRFSGSGSGTDFTLKISRVEAEDVGVYYCAQGTSVPFTFGQGTKLEIK"
14,0.5 fold,"H183/L072 VL E27aT (antibody, name in Kabat numbering, V domains shown, Dual-Ig) VH: QVQLVESGGGLVQPGRSLRLSCAASGFTFSNAWMHWVRQAPGKGLEWVAQIKDKGNAYAAYYAPSVKGRFTISRDDSKNSIYLQMNSLKTEDTAVYYCHYVHYASASTVLPAFGVDAWGQGTTVTVSS VL: DIVMTQSPLSLPVTPGEPASISCQASQTLVHMNRNTYLHWYQQKPGQAPRLLIYKVSNRFPGVPDRFSGSGSGTDFTLKISRVEAEDVGVYYCAQGTSVPFTFGQGTKLEIK"
15,1 fold,"H183/L072 VL E27aW (antibody, name in Kabat numbering, V domains shown, Dual-Ig) VH: QVQLVESGGGLVQPGRSLRLSCAASGFTFSNAWMHWVRQAPGKGLEWVAQIKDKGNAYAAYYAPSVKGRFTISRDDSKNSIYLQMNSLKTEDTAVYYCHYVHYASASTVLPAFGVDAWGQGTTVTVSS VL: DIVMTQSPLSLPVTPGEPASISCQASQWLVHMNRNTYLHWYQQKPGQAPRLLIYKVSNRFPGVPDRFSGSGSGTDFTLKISRVEAEDVGVYYCAQGTSVPFTFGQGTKLEIK"
16,1.1 fold,"H183/L072 VL E27aY (antibody, name in Kabat numbering, V domains shown, Dual-Ig) VH: QVQLVESGGGLVQPGRSLRLSCAASGFTFSNAWMHWVRQAPGKGLEWVAQIKDKGNAYAAYYAPSVKGRFTISRDDSKNSIYLQMNSLKTEDTAVYYCHYVHYASASTVLPAFGVDAWGQGTTVTVSS VL: DIVMTQSPLSLPVTPGEPASISCQASQYLVHMNRNTYLHWYQQKPGQAPRLLIYKVSNRFPGVPDRFSGSGSGTDFTLKISRVEAEDVGVYYCAQGTSVPFTFGQGTKLEIK"
17,0 fold,"H183/L072 VL F55D (antibody, name in Kabat numbering, V domains shown, Dual-Ig) VH: QVQLVESGGGLVQPGRSLRLSCAASGFTFSNAWMHWVRQAPGKGLEWVAQIKDKGNAYAAYYAPSVKGRFTISRDDSKNSIYLQMNSLKTEDTAVYYCHYVHYASASTVLPAFGVDAWGQGTTVTVSS VL: DIVMTQSPLSLPVTPGEPASISCQASQELVHMNRNTYLHWYQQKPGQAPRLLIYKVSNRDPGVPDRFSGSGSGTDFTLKISRVEAEDVGVYYCAQGTSVPFTFGQGTKLEIK"
18,0 fold,"H183/L072 VL F55E (antibody, name in Kabat numbering, V domains shown, Dual-Ig) VH: QVQLVESGGGLVQPGRSLRLSCAASGFTFSNAWMHWVRQAPGKGLEWVAQIKDKGNAYAAYYAPSVKGRFTISRDDSKNSIYLQMNSLKTEDTAVYYCHYVHYASASTVLPAFGVDAWGQGTTVTVSS VL: DIVMTQSPLSLPVTPGEPASISCQASQELVHMNRNTYLHWYQQKPGQAPRLLIYKVSNREPGVPDRFSGSGSGTDFTLKISRVEAEDVGVYYCAQGTSVPFTFGQGTKLEIK"
19,0 fold,"H183/L072 VL F55G (antibody, name in Kabat numbering, V domains shown, Dual-Ig) VH: QVQLVESGGGLVQPGRSLRLSCAASGFTFSNAWMHWVRQAPGKGLEWVAQIKDKGNAYAAYYAPSVKGRFTISRDDSKNSIYLQMNSLKTEDTAVYYCHYVHYASASTVLPAFGVDAWGQGTTVTVSS VL: DIVMTQSPLSLPVTPGEPASISCQASQELVHMNRNTYLHWYQQKPGQAPRLLIYKVSNRGPGVPDRFSGSGSGTDFTLKISRVEAEDVGVYYCAQGTSVPFTFGQGTKLEIK"
20,0 fold,"H183/L072 VL F55H (antibody, name in Kabat numbering, V domains shown, Dual-Ig) VH: QVQLVESGGGLVQPGRSLRLSCAASGFTFSNAWMHWVRQAPGKGLEWVAQIKDKGNAYAAYYAPSVKGRFTISRDDSKNSIYLQMNSLKTEDTAVYYCHYVHYASASTVLPAFGVDAWGQGTTVTVSS VL: DIVMTQSPLSLPVTPGEPASISCQASQELVHMNRNTYLHWYQQKPGQAPRLLIYKVSNRHPGVPDRFSGSGSGTDFTLKISRVEAEDVGVYYCAQGTSVPFTFGQGTKLEIK"
21,0 fold,"H183/L072 VL F55I (antibody, name in Kabat numbering, V domains shown, Dual-Ig) VH: QVQLVESGGGLVQPGRSLRLSCAASGFTFSNAWMHWVRQAPGKGLEWVAQIKDKGNAYAAYYAPSVKGRFTISRDDSKNSIYLQMNSLKTEDTAVYYCHYVHYASASTVLPAFGVDAWGQGTTVTVSS VL: DIVMTQSPLSLPVTPGEPASISCQASQELVHMNRNTYLHWYQQKPGQAPRLLIYKVSNRIPGVPDRFSGSGSGTDFTLKISRVEAEDVGVYYCAQGTSVPFTFGQGTKLEIK"
